These results are taken from patent US20200262895A1 (Biogen, published 2020).

Broadly, the EC50 is the concentration that produces a half-maximal response. As a reminder, the EC50 (read off the curve) is the concentration that produces a half-maximal response.

Where two headings read alike, the source gives them in different places.

Assay [1] addresses T1, recombinant human tau, isoform Tau-F of 441 aa (hTau40) (human, UniProt P10636 1-758).
T1 construct: Bought from rPeptide (Bogart, GA, USA); coated on ELISA plates, blotted, or spotted as overlapping peptides; also called full-length tau; rTau
Kind of assay: direct ELISA on coated recombinant tau (rTau).

Assay [2] deals with T2, normal tau in wild type mouse brain (Wt) (mouse, UniProt P10637-2 1-430, limits assumed).
T2 construct: Control tissue in immunohistochemistry
T2 sequence (P10637 other isoform, or with tags, fused parts or gaps limits assumed): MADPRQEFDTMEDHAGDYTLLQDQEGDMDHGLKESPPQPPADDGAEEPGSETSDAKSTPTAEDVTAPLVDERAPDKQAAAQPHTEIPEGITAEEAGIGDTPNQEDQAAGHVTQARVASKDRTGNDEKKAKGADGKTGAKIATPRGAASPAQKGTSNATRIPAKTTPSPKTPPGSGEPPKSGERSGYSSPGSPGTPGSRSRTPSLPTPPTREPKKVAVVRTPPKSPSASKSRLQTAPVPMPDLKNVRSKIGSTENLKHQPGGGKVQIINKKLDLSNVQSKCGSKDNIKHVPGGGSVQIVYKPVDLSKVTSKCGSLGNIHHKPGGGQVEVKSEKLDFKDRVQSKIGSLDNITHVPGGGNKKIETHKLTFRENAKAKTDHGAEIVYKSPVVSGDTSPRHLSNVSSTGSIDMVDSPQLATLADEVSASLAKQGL
Kind of assay: immunohistochemistry on brain tissue sections.

Assay [3] deals with T1, recombinant human tau, isoform Tau-F of …. Description: ELISA on recombinant Tau, absorbance at 450 nm.
Assay [4] has the same target. Kind of assay: ELISA on recombinant Tau, absorbance at 450 nm. The source holds these as a separate data set.
Assay [5] has as its target T3, PHFTau (paired helical filaments containing pathologically phosphorylated tau filaments, extracted from AD … (human, UniProt P10636-8 1-441, limits assumed, pathologically phosphorylated (sites of the preparation not listed), aggregated filaments)).
T3 construct: Brain extract, not a single defined isoform; also called human PHF tau; pathologically modified PHFTau
Description: direct ELISA on coated PHFTau.

In assay [6] the target is T1, recombinant human tau, isoform Tau-F of …. Description: direct ELISA, hTau40 coated at 1 ug/ml. How it is done:
The EC₅₀ values were estimated by a non-linear regression using GraphPad Prism software.
ELISA plates were coated with recombinant human tau (hTau40, 1 ug/ml), PHFTau (1:100) and control preparation (1:100), and incubated with varying antibody concentrations.
Background: ELISA stands for enzyme-linked immunosorbent assay.

T1 sequence (P10636 other isoform, or with tags, fused parts or gaps limits assumed): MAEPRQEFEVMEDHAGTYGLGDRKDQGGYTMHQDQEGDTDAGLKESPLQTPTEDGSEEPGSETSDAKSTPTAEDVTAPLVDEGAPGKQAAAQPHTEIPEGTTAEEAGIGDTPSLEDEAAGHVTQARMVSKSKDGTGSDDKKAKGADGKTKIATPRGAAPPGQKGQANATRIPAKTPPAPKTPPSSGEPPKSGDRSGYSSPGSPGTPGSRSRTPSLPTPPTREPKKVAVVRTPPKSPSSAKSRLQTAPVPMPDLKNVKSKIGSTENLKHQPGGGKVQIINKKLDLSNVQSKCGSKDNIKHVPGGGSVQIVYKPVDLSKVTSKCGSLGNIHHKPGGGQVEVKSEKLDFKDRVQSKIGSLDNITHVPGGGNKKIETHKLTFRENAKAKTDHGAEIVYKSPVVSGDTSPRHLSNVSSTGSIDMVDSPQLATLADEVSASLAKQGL
T3 sequence (P10636 other isoform, or with tags, fused parts or gaps limits assumed): as above

B1: recombinant human antibody NI-105.22E1 (germlined) (antibody, human IgG1, V domains shown)
VH: EVQLVQSGAEVKKPGESLKISCKGSGYRFTTYWIGWVRQMPGKGLEWMGIIYPGDSDTRYSPSYQGQVTISADKSISTAYLQWSSLKASDTGMYYCARVAGDIGYENYYYYGMDVWGQGTTVTVSS
VL: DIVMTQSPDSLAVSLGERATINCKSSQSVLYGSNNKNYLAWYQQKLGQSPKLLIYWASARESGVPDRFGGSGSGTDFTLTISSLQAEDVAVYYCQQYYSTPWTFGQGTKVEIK
notes: Complete recombinant human IgG1 by the methods
For the molecule B1, the concentration giving a half-maximal response (EC50) in assay [1] came out at 1.1 nM.

B2: recombinant human antibody NI-105.19C6 (germlined) (antibody, human IgG1, V domains shown)
VH: EVQLVQSGAEVKKPGESLKISCKASGYSFISYWVGWVRQMPGKGLEWMGIIYPGDSDTRYSPSFEGQVSISADKSISTAYLQWTSLKASDTAMYYCARHWGPAAVTDSPWFGPWGQGTLVTVSS
VL: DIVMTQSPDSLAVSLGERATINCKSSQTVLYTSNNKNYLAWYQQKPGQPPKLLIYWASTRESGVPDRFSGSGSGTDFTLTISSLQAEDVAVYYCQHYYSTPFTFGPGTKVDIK
notes: as for B1
For B2, in assay [1], the 50% effective concentration (EC50) worked out at 4 nM.

B3: recombinant human antibody NI-105.9C4 (germlined) (antibody, human IgG1, V domains shown)
VH: QVQLVQSGAEVKKPGASVKVSCKASGYIFTAFFMHWVRQAPGQGLEWMGWINPDSGATKYAHNFQGRVTMTRDTSISTAFMELSGLKSDDTGVYYCATGMAVTGNFWGQGTLVTVSS
VL: SYELTQPPSVSVSPGQTARITCSGDVLAETYARWFQQKPGQAPVLVMYRDRERPAGIPERFSGSSSGNTVTLTISGAQAEDEAVYHCHSVADNNLDWVFGGGTKLTVL
notes: Complete human IgG1 by the methods
As to B3, the EC50 in assay [1] was 5.2 nM.

B4: recombinant human antibody NI-105.48E5 (germlined) (antibody, V domains shown)
VH: EVQLVESGGGLVQPGGSLKLSCAASGFTFSGSAMHWVRQASGKGLEWVGRIRSKANSYATAYAASVKGRFTISRDDSKNTAYLQMNSLKTEDTAVYYCTSPTVTTEVWGQGTLVTVSS
VL: not shown
notes: as for B1
B4: the binding result in assay [2] was “no binding”.

B5: recombinant human antibody NI-105.40E8 (NI-105.40E8-hIgG1, germlined) (antibody, V domains shown)
VH: EVQLVESGGGLVQPGGSLRLSCAASGFTFPNYVMTWVRQAPGKGLEWVSGISGSGGSTDYADSVKGRFTISRDNSKNTLYLQMNSLRVEDTALYYCAKGSGGIRGQGTMVTVSS
VL: QSALTQPRSVSGSPGQSVTISCTGTSSDVGGYNYVSWHQQHPGKAPKLLIYDVTKRPSGVPDRFSGSKSGNTAALTISGLQAEDEADYYCHSYVGSYTLVFGGGTKLTVLG
notes: Heavy chain is human IgG1
For B5, the binding result in assay [2] was “no binding”.

B6: ch17C1(N31Q) mIgG2a (antibody)
heavy: EVQLVQSGAEVKKPGESLKISCKAFGYSFTNFWIGWVRQVPGKGLEWVGIIYPGDSDTRYSPSFQGQVTISADKSIDTAYLQWGHLKASDSAMYFCARRGFWTGSQIEYWGQGTQVTVSSAKTTAPSVYPLAPVCGDTTGSSVTLGCLVKGYFPEPVTLTWNSGSLSSGVHTFPAVLQSDLYTLSSSVTVTSSTWPSQSITCNVAHPASSTKVDKKIEPRGPTIKPCPPCKCPAPNLLGGPSVFIFPPKIKDVLMISLSPIVTCVVVDVSEDDPDVQISWFVNNVEVHTAQTQTHREDYNSTLRVVSALPIQHQDWMSGKEFKCKVNNKDLPAPIERTISKPKGSVRAPQVYVLPPPEEEMTKKQVTLTCMVTDFMPEDIYVEWTNNGKTELNYKNTEPVLDSDGSYFMYSKLRVEKKNWVERNSYSCSVVHEGLHNHHTTKSFSRTPGK
light: QSALTQPPSASGSPGHSVTISCTGTSSDVGQYSFVSWYQQYPGKAPKIIIYDVSKRSSGVPDRFFGSKSANTASLTVSGVQEEDEADYFCSSYGGSKYPWVFGGGTKLTVLGQPKSSPSVTLFPPSSEELETNKATLVCTITDFYPGVVTVDWKVDGTPVTQGMETTQPSKQSNNKYMASSYLTLTARAWERHSSYSCQVTHEGHTVEKSLSRADCS
Turning to B6, the “EC50 (read off the curve)” value was about 0.8 µg/mL in assay [3] and about 0.3 µg/mL in assay [4].

B7: ch17C1(N31Q) mIgG1 Agly (antibody)
heavy: EVQLVQSGAEVKKPGESLKISCKAFGYSFTNFWIGWVRQVPGKGLEWVGIIYPGDSDTRYSPSFQGQVTISADKSIDTAYLQWGHLKASDSAMYFCARRGFWTGSQIEYWGQGTQVTVSSAKTTPPSVYPLAPGSAAQTNSMVTLGCLVKGYFPEPVTVTWNSGSLSSGVHTFPAVLQSDLYTLSSSVTVPSSTWPSETVTCNVAHPASSTKVDKKIVPRDCGCKPCICTVPEVSSVFIFPPKPKDVLTITLTPKVTCVVVDISKDDPEVQFSWFVDDVEVHTAQTQPREEQFQSTFRSVSELPIMHQDWLNGKEFKCRVNSAAFPAPIEKTISKTKGRPKAPQVYTIPPPKEQMAKDKVSLTCMITDFFPEDITVEWQWNGQPAENYKNTQPIMDTDGSYFVYSKLNVQKSNWEAGNTFTCSVLHEGLHNHHTEKSLSHSPGK
light: QSALTQPPSASGSPGHSVTISCTGTSSDVGQYSFVSWYQQYPGKAPKIIIYDVSKRSSGVPDRFFGSKSANTASLTVSGVQEEDEADYFCSSYGGSKYPWVFGGGTKLTVLGQPKSSPSVTLFPPSSEELETNKATLVCTITDFYPGVVTVDWKVDGTPVTQGMETTQPSKQSNNKYMASSYLTLTARAWERHSSYSCQVTHEGHTVEKSLSRADCS
notes: Aglycosylated Fc; also called ch17C1-mIgG1-Agly; ch17C1 Agly
As to B7, the “EC50 (read off the curve)” value in assay [3] is about 0.9 µg/mL.

B8: chimeric NI-105.17C1 (ch17C1), mouse IgG2a/lambda (antibody, V domains shown)
VH: EVQLVQSGAEVKKPGESLKISCKAFGYSFTNFWIGWVRQVPGKGLEWVGIIYPGDSDTRYSPSFQGQVTISADKSIDTAYLQWGHLKASDSAMYFCARRGFWTGSQIEYWGQGTQVTVSS
VL: QSALTQPPSASGSPGHSVTISCTGTSSDVGNYSFVSWYQQYPGKAPKIIIYDVSKRSSGVPDRFFGSKSANTASLTVSGVQEEDEADYFCSSYGGSKYPWVFGGGTKLTVLG
modifications: N-glycan on Asn-31 (CDR1), fully occupied on CHO expression
notes: also called ch17C1-mIgG2a
For B8, the “EC50 (read off the curve)” value in assay [3] is about 0.8 µg/mL.

B9: ch17C1(N31Q, I48V) mIgG2a (antibody, V domains shown)
VH: EVQLVQSGAEVKKPGESLKISCKAFGYSFTNFWIGWVRQVPGKGLEWVGIIYPGDSDTRYSPSFQGQVTISADKSIDTAYLQWGHLKASDSAMYFCARRGFWTGSQIEYWGQGTQVTVSS
VL: QSALTQPPSASGSPGHSVTISCTGTSSDVGQYSFVSWYQQYPGKAPKVIIYDVSKRSSGVPDRFFGSKSANTASLTVSGVQEEDEADYFCSSYGGSKYPWVFGGGTKLTVLG
notes: The sentence giving the chains names the antibody 'ch17C1(N31Q) mIgG2a' but lists the (N31Q, I48V) light chain
For B9, the “EC50 (read off the curve)” value in assay [4] is about 0.3 µg/mL.

B10: recombinant human antibody NI-105.39E2 (germlined) (antibody, human IgG1, V domains shown)
VH: EVQLVESGGGLVQPGGSLRLSCAASGFTFSAYGMNWVRQAPGKGLEWVAHITGSGTPIFYADSVKGRFTISRDNAKSSLYLQMNSLRNDDTALYFCVRGTVDYWGQGTLVTVSS
VL: QAGLTQPPSVSKDLRQTATLTCSGNSNNVGNQGAAWLQQFPGHPPKLLFYENINRPSGISERFSASRSGNTASLTITGLQPEDEADYYCSAWDGHLNAWVFGGGTKLTVL
notes: as for B1
In the case of B10, the EC50 in assay [1] was 0.7 nM.

B11: recombinant human antibody NI-105.17C1 (not germlined, as used in Table 7) (antibody, human IgG1, V domains shown)
VH: EVQLVQSGAEVKKPGESLKISCKAFGYSFTNFWIGWVRQVPGKGLEWVGIIYPGDSDTRYSPSFQGQVTISADKSIDTAYLQWGHLKASDSAMYFCARRGFWTGSQIEYWGQGTLVTVSS
VL: QSALTQPPSASGSPGHSVTISCTGTSSDVGNYSFVSWYQQYPGKAPKVIIYDVSKRSSGVPDRFFGSKSANTASLTVSGVQEEDEADYFCSSYGGSKYPWVFGGGTKLTVL
notes: as for B3
Take B11: the EC50 in assay [5] is 4.7 nM; in assay [1], 3.3 nM.

B12: recombinant human antibody NI-105.4E4 (antibody, V domains shown)
VH: EVQLVESGGGLVQPGGSLKLSCAASGFNFNISAIHWVRQASGKGLEWVGRIRSKSHNYATLYAASLKGRFTLSRDDSRNTAYLQMSSLQTEDMAVYYCTVLSANYDTFDYWGQGTLVTVSS
VL: LPVLTQPPSVSVSPGQTARISCFGDTLPKQYTYWYQQKPGQAPVLVIYKDTERPSGIPERFSGSSSGTTVTLTISGVQAEDEADYYCLSADNSATWVFGGGTKVTVL
modifications: Asn-30 of the VH carried an N-glycan when the chimeric ch4E4 was expressed in CHO cells; the letter is unchanged.
notes: Human antibody described in US 2012/0087861
As for B12, the concentration giving a half-maximal response (EC50) in assay [6] is 2.4 nM.

B13: recombinant human antibody NI-105.14E2 (germlined) (antibody, human IgG1, V domains shown)
VH: EVQLVQSGAEVKKPGDSLRISCKASGYNFPNYWIGWVRQMPGKGLEWMGIIYPGDSDIRYSPSFQGHVTISSDKSITTAYLQWTSLKVADSAMYYCARVERPDKGGWFGPWGQGTLVTVSS
VL: DIVMTQSPDSLAVSLGERATINCKSSQTLLYTSNNQNYLAWYQHKPGQPPKVLIYWASTREYGVPDRFSGSGSGTDFTLTISSLQPEDVAVYYCQQYYNSPYTFGQGTKLEIK
notes: as for B1
Turning to B13, in assay [1], the EC50 is 0.65 nM.

B14: recombinant human antibody NI-105.60E7 (germlined) (antibody, human IgG1, V domains shown)
VH: EVQLVESGGGFVRPGGSITLSCATSGFTFTKAWMTWVRQAPVKGLEWIGHIKTRIEGATTDYAAPVEGRFTISRDDSKNMVYLQMNSLKTEDSGIYYCSTDFDYWGQGTLVTVSS
VL: DVVMTQSPLSLPVTLGQPASISCTSSQSLLYSDGNTYLNWFQQRPGQSPRRLMYKVSKRDPGVPDRFSGSGSGTDFTLSISRVEAEDVGVYYCMQGSLWPRYTFGQGTKVEIK
notes: as for B1
On to B14, for which the EC50 in assay [1] was determined as 0.18 nM.

B15: recombinant human antibody NI-105.6L9 (germlined) (antibody, human IgG1, V domains shown)
VH: EVQLVESGGGLVQPGGSLRLSCAGTRFTFSTYAMGWVRQAPGRGLEWVSAIGGSGDSTSYADSVKGRFTISRDNSKNTLYLQMNSLRAEDTAVYYCAKGVYDYLWGSYRLFDYWGQGTLVTVSS
VL: SYVLTQPPSVSVAPGQTARFTCGGNNIASKSVHWYQQKPGQAPVLVVYDDSDRPSRIPERFSGSNSGNTATLTISRVEAGDEADYYCQVWDSTSDHVVFGGGTKLTVL
notes: as for B1
Take B15: the EC50 in assay [1] was 2.5 nM.

B16: recombinant human antibody NI-105.26B12 (germlined) (antibody, human IgG1, V domains shown)
VH: QVQLVESGGGVVQPGRSLRLSCAASGFTFTRYGMHWVRQAPGKGLEWVAVIWYDGTNKYYADSLQGRFTISRDTSTNTLYLQMNGLRVEDRAVYYCAREGFQGAIDYWGQGTLVTVSS
VL: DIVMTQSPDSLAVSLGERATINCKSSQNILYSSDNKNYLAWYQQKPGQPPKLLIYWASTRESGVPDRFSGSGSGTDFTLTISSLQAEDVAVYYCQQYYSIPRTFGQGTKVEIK
notes: as for B1
In the case of B16, the EC50 in assay [1] is 2.9 nM.

B17: recombinant human antibody NI-105.29G10 (germlined) (antibody, human IgG1, V domains shown)
VH: EVQLVESGGDLVQPGGSLRLSCAASGFDFSGYSMAWVRQAPGKGLEWVSYISGTYVSGGTGTMYYLDSVKGRFFISRDDATSSLYLQMDSLRDEDTAVYYCARVYDYGEDWGQGTLVTVSS
VL: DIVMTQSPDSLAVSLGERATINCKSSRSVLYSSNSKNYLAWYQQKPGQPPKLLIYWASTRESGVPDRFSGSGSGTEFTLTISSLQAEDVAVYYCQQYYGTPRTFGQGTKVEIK
notes: as for B1
B17: the results for the concentration giving a half-maximal response (EC50) in assay [5] and in assay [1] were 5.3 nM and 3.8 nM, respectively.

B18: recombinant human antibody NI-105.12E12 (germlined) (antibody, human IgG1, V domains shown)
VH: EVQLVESGGGLVQPGGSLKLSCAASGFSFSDSAFHWARQASGKGLEWVGRIRSKGNNYATAYAASVKGRFTVSRDDSKNTTYLQMNSLKTDDTAIYYCTRQGPSYGGINWGLGTLVTVSS
VL: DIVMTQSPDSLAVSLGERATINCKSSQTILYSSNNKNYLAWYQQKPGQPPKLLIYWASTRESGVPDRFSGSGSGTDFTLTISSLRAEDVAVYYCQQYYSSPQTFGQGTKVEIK
notes: as for B1
On to B18, for which the EC50 in assay [1] was 28.6 nM.
